Results on one molecule are retold here after article PMC2853113.

Series [1] deals with T1, YvoA wild-type (Bacillus subtilis, UniProt O34817 1-243).
T1 sequence: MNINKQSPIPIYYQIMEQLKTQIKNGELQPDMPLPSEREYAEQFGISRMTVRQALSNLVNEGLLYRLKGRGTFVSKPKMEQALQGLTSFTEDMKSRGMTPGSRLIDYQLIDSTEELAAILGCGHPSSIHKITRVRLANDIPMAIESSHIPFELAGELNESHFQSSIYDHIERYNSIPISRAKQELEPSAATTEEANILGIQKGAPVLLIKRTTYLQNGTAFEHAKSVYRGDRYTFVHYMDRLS
As to the kind of experiment: ITC.

Series [2] deals with T1, YvoA wild-type. Kind of series: ITC. The source holds these as a separate data set.
Series [3] concerns the target T2, YvoA-E61C-L242C (Bacillus subtilis, UniProt O34817 1-243, E61C;L242C).
T2 sequence: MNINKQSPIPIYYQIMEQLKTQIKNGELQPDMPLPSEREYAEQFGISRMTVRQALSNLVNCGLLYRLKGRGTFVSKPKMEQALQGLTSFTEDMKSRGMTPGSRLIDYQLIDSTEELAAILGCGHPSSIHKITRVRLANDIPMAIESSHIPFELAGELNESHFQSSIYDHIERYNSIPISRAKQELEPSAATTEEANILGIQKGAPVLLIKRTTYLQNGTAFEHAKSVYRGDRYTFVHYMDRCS
As to the kind of experiment: analytical gel filtration. On the technique in general: In gel filtration, larger molecules generally elute earlier.

Series [4] addresses T3, YvoA-K24C-G97C (Bacillus subtilis, UniProt O34817 1-243, K24C;G97C).
T3 sequence: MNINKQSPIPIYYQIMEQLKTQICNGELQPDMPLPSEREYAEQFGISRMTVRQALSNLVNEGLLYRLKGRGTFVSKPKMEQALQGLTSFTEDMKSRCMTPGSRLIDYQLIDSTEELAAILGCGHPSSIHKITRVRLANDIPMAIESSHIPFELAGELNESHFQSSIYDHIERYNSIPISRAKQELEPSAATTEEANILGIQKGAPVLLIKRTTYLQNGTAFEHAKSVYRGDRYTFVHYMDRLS
As to the kind of experiment: analytical gel filtration.

Like-named read-outs stand apart in the source and are kept apart here.

B1: YvoA operator dsDNA (18mer) (dsDNA)
DNA 1: ATTGGTATAGATCACTAG
DNA 2: CTAGTGATCTATACCAAT
One may read the Kd as the free concentration of one partner at which half of the binding sites on the other are occupied at equilibrium, for simple one-to-one binding. A higher Kd goes with a looser complex. Consider B1, for which the values for the Kd in series [1] and in series [2] were 2.9 nM and 131 nM, respectively. The binding result in series [3] and in series [4] was “binds” throughout.
